In assay [1] the target is T1, CD18 protein fused with human Fc protein, expressed in transfected 293 cells (UniProt P05107 23-700, limits assumed).
T1 construct: Negative control for immunostaining; also called control CD18 protein; CD18-human Fc protein; not shown: human Fc
The experiment in a line: immunostaining of transfected 293 cells. The text has this: We transfected 293 cells either with BCMA (CD269)-human Fc protein or control CD18 protein fused with human Fc protein and performed immunostaining analysis. […] By IHC, clone 4C8A bound to RPMI8226 cells, myeloma primary tumors and normal human liver, but not to any other normal or other type cancer human tissues, confirming the specificity of BCMA expression. BCMA antibody detected also BCMA in primary multiple myeloma tumors.

Assay [2] addresses T2, BCMA protein (recombinant human BCMA) (human, UniProt Q02223 1-54).
T2 construct: also called BCMA antigen; BCMA recombinant protein
T2 sequence: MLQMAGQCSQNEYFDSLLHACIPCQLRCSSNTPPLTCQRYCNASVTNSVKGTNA
Briefly: BLItz biolayer interferometry, anti-mouse IgG biosensor, antibody at 100, 50 and 25 nM. How it is done: The BCMA 4C8A antibody was diluted to 100, 50 and 25 nM and added to the anti-mouse IgG biosensor (ForteBio Corp., Menlo Park, Calif.). After 5 minutes, the biosensor was rinsed free of unbound antibody. Binding was monitored by the BLItz system (ForteBio), and the antibody's dissociation constant was determined with the BLItz software.
For orientation: In BLI a coated tip is dipped into the sample, and binding shifts an interference pattern.

The target of assay [3] is T3, BCMA peptide (BCMA extracellular domain protein with a C-terminal deletion of 37 residues) (human).
T3 construct: also called BCMA shorter peptide; shorter peptide from BCMA extracellular domain
T3 peptide: MLQMAGQCSQNEYFDSL
The experiment in a line: ELISA, plate coated with BCMA peptide, HRP anti-mouse IgG and TMB, OD450. How it is done:
We generated mouse monoclonal anti-human BCMA monoclonal antibody 4C8A using hybridoma. Dilutions of the antibody were incubated in ELISA plates coated with BCMA protein, or BCMA peptide (BCMA extracellular domain protein with a C-terminal deletion of 37 residues), or an irrelevant control CD363 protein. Binding of BCMA mAb 4C8A to the coated protein was detected with HRP-conjugated anti-mouse IgG and TMB substrate. […] The binding of BCMA to BCMA protein was in a dose-dependent manner: decreased with […] in contrast to negative controls (FIG. 4).
On the technique in general: An ELISA detects its analyte on a solid surface through an enzyme-linked reagent.

T1 sequence (P05107 23-700 limits assumed): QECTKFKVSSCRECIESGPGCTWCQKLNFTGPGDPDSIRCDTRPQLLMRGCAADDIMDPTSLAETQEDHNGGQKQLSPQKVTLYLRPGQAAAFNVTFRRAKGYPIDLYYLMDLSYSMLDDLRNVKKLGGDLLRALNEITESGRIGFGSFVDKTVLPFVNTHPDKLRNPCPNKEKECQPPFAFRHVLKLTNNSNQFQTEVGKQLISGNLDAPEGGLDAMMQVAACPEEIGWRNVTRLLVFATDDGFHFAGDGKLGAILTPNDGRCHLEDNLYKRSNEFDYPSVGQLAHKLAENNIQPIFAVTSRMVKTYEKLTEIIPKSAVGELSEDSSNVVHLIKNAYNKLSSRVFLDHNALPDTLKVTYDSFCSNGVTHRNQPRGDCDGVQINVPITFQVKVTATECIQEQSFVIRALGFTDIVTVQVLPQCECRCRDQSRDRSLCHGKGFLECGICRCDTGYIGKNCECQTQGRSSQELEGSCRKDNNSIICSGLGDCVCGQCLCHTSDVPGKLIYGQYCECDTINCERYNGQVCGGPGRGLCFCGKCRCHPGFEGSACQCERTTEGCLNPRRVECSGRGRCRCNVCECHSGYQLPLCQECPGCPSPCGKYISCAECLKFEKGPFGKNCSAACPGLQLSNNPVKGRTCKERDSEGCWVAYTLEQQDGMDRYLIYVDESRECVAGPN

B1: mouse monoclonal anti-human BCMA antibody clone 4C8A (antibody, mouse IgG1, V domains shown)
VH: VQLQQSGPELVKPGASVKMSCKASGYTFTSYVMHWVKQKPGQGLEWIGYIIPYNDATKYNEKFKGKATLTSDKSSSTAYMELSSLTSEDSAVYYCARYNYDGYFDVWGAGTTVTVSS
VL: DIVMTQSPATLSVTPGDRVSLSCRASQSISDYLHWYQQKSHESPRLLIKYASQSISGIPSRFSGSGSGSDFTLSINSVEPEDVGVYYCQNGHSFPPTFGGGTKLEIK
notes: also called BCMA mAb 4C8A; BCMA 4C8A antibody
For B1, the binding result in assay [1] and in assay [3] was “no binding” each time. In assay [2], the Kd was roughly 2.8 nM.

What is called Kd is the concentration at which binding is half-saturated.

The values are drawn from patent US20210015870A1 (PROMAB BIOTECHNOLOGIES, published 2021).
